Assays:
[1] = molecular target: T1, transforming growth factor-beta 1 (TGF-β1) (UniProt P01137 279-390); experiment: SPR
[2] = molecular target: T1, transforming growth factor-beta 1 …; experiment: SPR; remark: listed apart in the source

T1 sequence (P01137 279-390): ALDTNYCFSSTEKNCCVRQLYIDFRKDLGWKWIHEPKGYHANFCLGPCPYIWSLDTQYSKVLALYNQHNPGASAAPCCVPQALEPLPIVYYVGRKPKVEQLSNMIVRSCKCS

Kd [1] | koff [2] | Binder
6.3 nM | 0.000889 s⁻¹ | thrombospondin-4 (TSP-4), recombinant full-length rat (natural protein) not shown
22.9 nM | 0.000392 s⁻¹ | cartilage oligomeric matrix protein (COMP), recombinant full-length rat (natural protein) not shown

From article PMC7956748 (2021)
